This note sets out measurements from publication PMC7000732, “Bridging non-overlapping reads illuminates high-order epistasis between distal protein sites in a GPCR” (Nature Communications, 2020).

Assay [1] can be described thus: FACS-based screen of A2aR library with deep sequencing (BRIDGE): variant enrichment. It counts as cell-based, Saccharomyces cerevisiae.
The nature of assay [2]: Whole-cell saturation radioligand binding. The arrangement: species or system Saccharomyces cerevisiae. As to conditions: for Kd: 3H-NECA, whole yeast cells, pH 5.8, mean ± SD of three biological replicates, read-out: equilibrium dissociation constant (Kd); for CPM: raw replicate counts, empty vector not subtracted; for fold greater 3H-NECA binding affinity than wild-type receptor: ratio of Kd to wild-type.

Assay [3] can be described thus: Fluorescent ligand binding measured by flow cytometry. On the set-up: species or system Saccharomyces cerevisiae. As to conditions: for fluorescent ligand binding signal / % pop above background / Mean Singlet Fluorescence Intensity (530 nm): replicates; for % pop above background / Mean Singlet Fluorescence Intensity (530 nm): incubated with FITC-APEC. A general note: In flow cytometry, cells or beads pass a laser one at a time.

Setting [4] is: naive to PS4 library (PS4/naive), high-stringency gating, 10 µM FITC-APEC.

Several values for one entry are separate records, joined by “and”; a condition that tells them apart may be missing. Equal values may be shown once. Read-outs that look alike come from different tables or passages of the source.

The term Kd denotes the equilibrium constant for the complex coming apart.

For “WT: wild-type human adenosine A2a receptor, decahistidine-tagged, expressed in yeast from centromeric pYC vector [reference compound]”, the Enrichment rate in assay [1] (setting [4]) was 0.3; in assay [1] (naive to PS4 population) it was 0.30 fold. In addition, the Kd in assay [2] turned out to be 39.2 ± 4.8 nM. Besides, the CPM in assay [2] ([3H-NECA] 1.6 nM) is 64 CPM and 47 CPM and 35 CPM; in assay [2] ([3H-NECA] 3.1 nM) it was 108 CPM and 89 CPM and 54 CPM; in assay [2] ([3H-NECA] 6.3 nM), 192 CPM and 223 CPM and 155 CPM; in assay [2] ([3H-NECA] 12.5 nM) it was 331 CPM and 408 CPM and 255 CPM; in assay [2] ([3H-NECA] 25 nM), 470 CPM and 533 CPM and 388 CPM; in assay [2] ([3H-NECA] 50 nM) it was 546 CPM and 694 CPM and 708 CPM. Also, the CPM in assay [2] ([3H-NECA] 100 nM) is 805 CPM and 900 CPM and 958 CPM; in assay [2] ([3H-NECA] 200 nM), 1026 CPM and 1370 CPM and 1371 CPM; in assay [2] ([3H-NECA] 400 nM), 1047 CPM and 2304 CPM and 1995 CPM. Besides, the “fluorescent ligand binding signal” value in assay [3] ([FITC-APEC] 10 nM, Supplementary Figure 1 source data, listed as pYC A2a10H) was 101 and 100 and 99; in assay [3] ([FITC-APEC] 10 nM, Supplementary Figure 4 source data, listed as pYC A2a10H), 104 and 103 and 102; in assay [3] ([FITC-APEC] 100 nM, Supplementary Figure 1 source data, listed as pYC A2a10H), 111 and 108 and 134; in assay [3] ([FITC-APEC] 100 nM, Supplementary Figure 4 source data, listed as pYC A2a10H), 114 and 110 and 133; in assay [3] ([FITC-APEC] 1000 nM, Supplementary Figure 1 source data, listed as pYC A2a10H), 208 and 180 and 189; in assay [3] ([FITC-APEC] 1000 nM, Supplementary Figure 4 source data, listed as pYC A2a10H), 206 and 184 and 191. The “fluorescent ligand binding signal” value is 370 and 353 and 396 in assay [3] ([FITC-APEC] 10000 nM, Supplementary Figure 1 source data, listed as pYC A2a10H); 377 and 330 and 373 in assay [3] ([FITC-APEC] 10000 nM, Supplementary Figure 4 source data, listed as pYC A2a10H); 442 and 457 and 477 in assay [3] ([FITC-APEC] 50000 nM, Supplementary Figure 1 source data, listed as pYC A2a10H); 354 and 386 and 364 in assay [3] ([FITC-APEC] 50000 nM, Supplementary Figure 4 source data, listed as pYC A2a10H).
With “pITy A2a10H: decahistidine-tagged wild-type A2aR expressed in yeast from multi-site-integrating pITy vector”, the “% pop above background” value in assay [3] (+raffinose) is 97.3% and 99.1% and 99.7%; in assay [3] (-raffinose) it was 88.4% and 92.7% and 86.6%. Also, the “Mean Singlet Fluorescence Intensity (530 nm)” value in assay [3] (+raffinose) was 1177 a.u. and 1389 a.u. and 1621 a.u; in assay [3] (-raffinose), 853 a.u. and 1341 a.u. and 1013 a.u. For the same molecule, the “fluorescent ligand binding signal” value in assay [3] ([FITC-APEC] 10 nM, Supplementary Figure 1 source data) was 102 and 103 and 101; in assay [3] ([FITC-APEC] 100 nM, Supplementary Figure 1 source data) it was 124 and 112 and 118; in assay [3] ([FITC-APEC] 1000 nM, Supplementary Figure 1 source data) it was 357 and 323 and 352; in assay [3] ([FITC-APEC] 10000 nM, Supplementary Figure 1 source data), 1097 and 999 and 1047; in assay [3] ([FITC-APEC] 50000 nM, Supplementary Figure 1 source data), 1681 and 1267 and 1322.

B1: TGRIA: Variant GRIA (T88/Q89G/W246R/L249I/H250A) of human adenosine A2a receptor (protein, UniProt P29274 1-412, looked up, variant Q89G W246R L249I H250A)
Adenosine receptor A2a: MPIMGSSVYITVELAIAVLAILGNVLVCWAVWLNSNLQNVTNYFVVSLAAADIAVGVLAIPFAITISTGFCAACHGCLFIACFVLVLTGSSIFSLLAIAIDRYIAIRIPLRYNGLVTGTRAKGIIAICWVLSFAIGLTPMLGWNNCGQPKEGKNHSQGCGEGQVACLFEDVVPMNYMVYFNFFACVLVPLLLMLGVYLRIFLAARRQLKQMESQPLPGERARSTLQKEVHAAKSLAIIVGLFALCRLPIAIINCFTFFCPDCSHAPLWLMYLAIVLSHTNSVVNPFIYAYRIREFRQTFRKIIRSHVLRQQEPFKAAGTSARVLAAHGSDGEQVSLRLNGHPPGVWANGSAPHPERRPNGYALGLVSGGSAQESQGNTGLPDVELLSHELKGVCPEPPGLDDPLAQDGAGVS
As to B1, the Enrichment rate in assay [1] (setting [4]) is 517. Also, the “Fold increase in enrichment rate over WT” value in assay [1] (naive to PS4 library, WT rate 0.30) is given as 1722 fold. Besides, in assay [2], the dissociation constant (Kd) was found to be 10.9 ± 0.8 nM. The CPM is 148 CPM and 222 CPM and 182 CPM in assay [2] ([3H-NECA] 1.6 nM); 317 CPM and 337 CPM and 348 CPM in assay [2] ([3H-NECA] 3.1 nM); 477 CPM and 597 CPM and 529 CPM in assay [2] ([3H-NECA] 6.3 nM); 612 CPM and 847 CPM and 800 CPM in assay [2] ([3H-NECA] 12.5 nM); 815 CPM and 1157 CPM and 1066 CPM in assay [2] ([3H-NECA] 25 nM); 1152 CPM and 1391 CPM and 1352 CPM in assay [2] ([3H-NECA] 50 nM). The CPM in assay [2] ([3H-NECA] 100 nM) is 1488 CPM and 1655 CPM and 1630 CPM; in assay [2] ([3H-NECA] 200 nM), 1857 CPM and 2089 CPM and 2112 CPM; in assay [2] ([3H-NECA] 400 nM), 2326 CPM and 2813 CPM and 3169 CPM. Also, in assay [2], the “fold greater 3H-NECA binding affinity than wild-type receptor” value is “fourfold”.

B2: SLNIG: A2aR variant; letters are residues at T88, Q89, W246, L249, H250 (protein, UniProt P29274 1-412, looked up, variant T88S Q89L W246N L249I H250G)
Adenosine receptor A2a: MPIMGSSVYITVELAIAVLAILGNVLVCWAVWLNSNLQNVTNYFVVSLAAADIAVGVLAIPFAITISTGFCAACHGCLFIACFVLVLSLSSIFSLLAIAIDRYIAIRIPLRYNGLVTGTRAKGIIAICWVLSFAIGLTPMLGWNNCGQPKEGKNHSQGCGEGQVACLFEDVVPMNYMVYFNFFACVLVPLLLMLGVYLRIFLAARRQLKQMESQPLPGERARSTLQKEVHAAKSLAIIVGLFALCNLPIGIINCFTFFCPDCSHAPLWLMYLAIVLSHTNSVVNPFIYAYRIREFRQTFRKIIRSHVLRQQEPFKAAGTSARVLAAHGSDGEQVSLRLNGHPPGVWANGSAPHPERRPNGYALGLVSGGSAQESQGNTGLPDVELLSHELKGVCPEPPGLDDPLAQDGAGVS
Take B2: the Enrichment rate in assay [1] was 791. For the same molecule, the “Fold increase in enrichment rate over WT” value in assay [1] turned out to be 2635 fold. For the same molecule, the dissociation constant (Kd) in assay [2] is 10.7 ± 0.6 nM. Besides, the CPM in assay [2] ([3H-NECA] 1.6 nM) is 138 CPM and 195 CPM and 220 CPM; in assay [2] ([3H-NECA] 3.1 nM), 282 CPM and 376 CPM and 382 CPM; in assay [2] ([3H-NECA] 6.3 nM), 494 CPM and 563 CPM and 618 CPM; in assay [2] ([3H-NECA] 12.5 nM), 783 CPM and 767 CPM and 883 CPM; in assay [2] ([3H-NECA] 25 nM), 861 CPM and 1199 CPM and 1152 CPM; in assay [2] ([3H-NECA] 50 nM), 1216 CPM and 1410 CPM and 1521 CPM. Moreover, the CPM is 1341 CPM and 1416 CPM and 1794 CPM in assay [2] ([3H-NECA] 100 nM); 1692 CPM and 1849 CPM and 2050 CPM in assay [2] ([3H-NECA] 200 nM); 2037 CPM and 2595 CPM and 2482 CPM in assay [2] ([3H-NECA] 400 nM).

B3: C28A/C82A/C128A/C185A/C245S/C254A/C394S: inactive A2aR variant that does not bind ligand (protein, UniProt P29274 1-412, looked up, variant C28A C82A C128A C185A C245S C254A C394S)
Adenosine receptor A2a: MPIMGSSVYITVELAIAVLAILGNVLVAWAVWLNSNLQNVTNYFVVSLAAADIAVGVLAIPFAITISTGFCAACHGCLFIAAFVLVLTQSSIFSLLAIAIDRYIAIRIPLRYNGLVTGTRAKGIIAIAWVLSFAIGLTPMLGWNNCGQPKEGKNHSQGCGEGQVACLFEDVVPMNYMVYFNFFAAVLVPLLLMLGVYLRIFLAARRQLKQMESQPLPGERARSTLQKEVHAAKSLAIIVGLFALSWLPLHIINAFTFFCPDCSHAPLWLMYLAIVLSHTNSVVNPFIYAYRIREFRQTFRKIIRSHVLRQQEPFKAAGTSARVLAAHGSDGEQVSLRLNGHPPGVWANGSAPHPERRPNGYALGLVSGGSAQESQGNTGLPDVELLSHELKGVSPEPPGLDDPLAQDGAGVS
As for B3, in assay [3] (FITC-APEC, yeast cells), the “fluorescent ligand binding, result in words” value is “does not bind ligand”.

B4: TSWLH: single-residue mutant Q89S of A2aR, the most abundant variant in PS4 (protein, UniProt P29274 1-412, looked up, variant Q89S)
Adenosine receptor A2a: MPIMGSSVYITVELAIAVLAILGNVLVCWAVWLNSNLQNVTNYFVVSLAAADIAVGVLAIPFAITISTGFCAACHGCLFIACFVLVLTSSSIFSLLAIAIDRYIAIRIPLRYNGLVTGTRAKGIIAICWVLSFAIGLTPMLGWNNCGQPKEGKNHSQGCGEGQVACLFEDVVPMNYMVYFNFFACVLVPLLLMLGVYLRIFLAARRQLKQMESQPLPGERARSTLQKEVHAAKSLAIIVGLFALCWLPLHIINCFTFFCPDCSHAPLWLMYLAIVLSHTNSVVNPFIYAYRIREFRQTFRKIIRSHVLRQQEPFKAAGTSARVLAAHGSDGEQVSLRLNGHPPGVWANGSAPHPERRPNGYALGLVSGGSAQESQGNTGLPDVELLSHELKGVCPEPPGLDDPLAQDGAGVS
In the case of B4, the “Fold increase in enrichment rate over WT” value in assay [1] amounted to 1121 fold. Besides, the Kd in assay [2] was found to be 11.8 ± 1 nM. Further, the CPM is 269 CPM and 283 CPM and 176 CPM in assay [2] ([3H-NECA] 1.6 nM); 574 CPM and 478 CPM and 918 CPM in assay [2] ([3H-NECA] 3.1 nM); 877 CPM and 818 CPM and 594 CPM in assay [2] ([3H-NECA] 6.3 nM); 1293 CPM and 1161 CPM and 783 CPM in assay [2] ([3H-NECA] 12.5 nM); 1556 CPM and 1523 CPM and 1194 CPM in assay [2] ([3H-NECA] 25 nM); 2099 CPM and 1735 CPM and 1402 CPM in assay [2] ([3H-NECA] 50 nM). Also, the CPM in assay [2] ([3H-NECA] 100 nM) is 2533 CPM and 2165 CPM and 1719 CPM; in assay [2] ([3H-NECA] 200 nM) it was 2889 CPM and 2229 CPM and 2151 CPM; in assay [2] ([3H-NECA] 400 nM) it was 3382 CPM and 2947 CPM and 2944 CPM. The “fold greater 3H-NECA binding affinity than wild-type receptor” value in assay [2] is on record as “fourfold”.
